Data published in patent US20120021972A1 (CADILA HEALTHCARE, published 2012).
Starred links: 1 amine or outer side, 2 acyl side, 3 side chain; linkers in the order of their positions; H or OH if unused. Non-standard residues stand in square brackets, D forms with d. No end group written: not given here. *: point of attachment. NMe2F‑APPA = N-methyl-2-amino-5-(2-fluorophenyl)pentanoic acid, CN([C@@H](CCCc1ccccc1F)C(=O)[*:2])[*:1]; ACPP = 2-amino-5-(3-chlorophenyl)pentanoic acid, O=C([C@H](CCCc1cccc(Cl)c1)N[*:1])[*:2]; Bip(2'-Et-4'-OMe) = CCc1cc(OC)ccc1-c1ccc(C[C@H](N)C(=O)O)cc1; 2F‑APPA = 2-amino-5-(2-fluorophenyl)pentanoic acid; αMePhe(2-F) = C[C@](N)(Cc1ccccc1F)C(=O)O; NMeBip(OMe) = N-methylated Bip(OMe); hhPhe = N[C@@H](CCCc1ccccc1)C(=O)O; NMeD = CN[C@@H](CC(=O)O)C(=O)O; aThr = C[C@H](O)[C@H](N)C(=O)O; NMeAPPA = not defined here; CNB = not defined here; Aib = CC(C)(N)C(=O)O; Moc = COC(=O)*

B1: Seq. ID. No. 168: H-Aib-(CNB)-G-T(allo)-(α-Me-2F-Phe)-T(allo)-SD-Bip(OMe)-(C═S)-(2F-APPA) (peptide)
peptide: H[Aib][CNB]G[aThr][αMePhe(2-F)][aThr]SD[Bip(2'-Et-4'-OMe)][2F‑APPA]
modifications: reading uncertain; also: thioamide bond between residues 10 and 11
B2: Seq. ID. No. 116: H-Aib-(CNB)-G-T(allo)-(α-Me-2F-Phe)-T(allo)-SD-Bip(OMe)-(2F-APPA) (peptide)
peptide: H[Aib][CNB]G[aThr][αMePhe(2-F)][aThr]SD[Bip(2'-Et-4'-OMe)][2F‑APPA]
modifications: reading uncertain
B3: Seq. ID. No. 19: H-Aib-QGTFTSD-Bip(OMe)-(ACPP) (peptide)
peptide: H[Aib]QGTFTSD[Bip(2'-Et-4'-OMe)][ACPP]
B4: Seq. ID. No. 144: H-Aib-(CNB)-G-T(allo)-(α-Me-2F-Phe)-T(allo)-SD-((NMe)Bip(OMe))-((NMe)(2F-APPA)) (peptide)
peptide: H[Aib][CNB]G[aThr][αMePhe(2-F)][aThr]SD[NMeBip(OMe)][NMe2F‑APPA]
modifications: reading uncertain
B5: Seq. ID. No. 200: CH3OCO-H-Aib-QG-T(allo)-(α-Me-2F-Phe)-T(allo)-SD-(CH2)-Bip(OMe)-(CH2)-(2F-APPA) (peptide)
peptide: Moc-H[Aib]QG[aThr][αMePhe(2-F)][aThr]SD[Bip(2'-Et-4'-OMe)][2F‑APPA]
modifications: also: reduced (CH2) bonds between 9-10 and 10-11
B6: Seq. ID. No. 130: H-Aib-(CNB)-G-T(allo)-(α-Me-2F-Phe)-T(allo)-SD-Bip(OMe)-((NMe)(APPA)) (peptide)
peptide: H[Aib][CNB]G[aThr][αMePhe(2-F)][aThr]SD[Bip(2'-Et-4'-OMe)][NMeAPPA]
modifications: reading uncertain
B7: Seq. ID. No. 178: H-Aib-(CNB)-G-T(allo)-(α-Me-2F-Phe)-T(allo)-SD-(C═S)-Bip(OMe)-(C═S)-(APPA) (peptide)
peptide: H[Aib][CNB]G[aThr][αMePhe(2-F)][aThr]SD[Bip(2'-Et-4'-OMe)][hhPhe]
modifications: reading uncertain; also: thioamide bonds between residues 9-10 and 10-11
B8: Seq. ID. No. 154: H-Aib-(CNB)-G-T(allo)-(α-Me-2F-Phe)-T(allo)-S-(NMe)D-((NMe)Bip(OMe))-((NMe)(APPA)) (peptide)
peptide: H[Aib][CNB]G[aThr][αMePhe(2-F)][aThr]S[NMeD][NMeBip(OMe)][NMeAPPA]
modifications: reading uncertain
B9: Seq. ID. No. 156: H-Aib-(CNB)-G-T(allo)-(α-Me-2F-Phe)-T(allo)-S-(NMe)D-((NMe)Bip(OMe))-((NMe)(2F-APPA)) (peptide)
peptide: H[Aib][CNB]G[aThr][αMePhe(2-F)][aThr]S[NMeD][NMeBip(OMe)][NMe2F‑APPA]
modifications: reading uncertain
B10: Seq. ID. No. 194: CH3OCO-H-Aib-QGT-(α-Me-2F-Phe)-TSD-(CH2)-Bip(OMe)-(CH2)-(APPA) (peptide)
peptide: Moc-H[Aib]QGT[αMePhe(2-F)]TSD[Bip(2'-Et-4'-OMe)][hhPhe]
modifications: also: reduced (CH2) bonds between 9-10 and 10-11
B11: Seq. ID. No. 166: H-Aib-(CNB)-G-T(allo)-(α-Me-2F-Phe)-T(allo)-SD-Bip(OMe)-(C═S)-(APPA) (peptide)
peptide: H[Aib][CNB]G[aThr][αMePhe(2-F)][aThr]SD[Bip(2'-Et-4'-OMe)][hhPhe]
modifications: reading uncertain; also: thioamide bond between residues 10 and 11
B12: Seq. ID. No. 120: H-Aib-(CNB)-GT-(α-Me-2F-Phe)-T(allo)-SD-Bip(OMe)-(2F-APPA) (peptide)
peptide: H[Aib][CNB]GT[αMePhe(2-F)][aThr]SD[Bip(2'-Et-4'-OMe)][2F‑APPA]
modifications: reading uncertain
B13: Seq. ID. No. 202: H-Aib-(CNB)-G-T(allo)-(α-Me-2F-Phe)-T(allo)-SD-(CH2)-Bip(OMe)-(CH2)-(APPA) (peptide)
peptide: H[Aib][CNB]G[aThr][αMePhe(2-F)][aThr]SD[Bip(2'-Et-4'-OMe)][hhPhe]
modifications: reading uncertain; also: reduced (CH2) bonds between 9-10 and 10-11

What was measured:
human glucagon receptor = human glucagon receptor (human, UniProt P47871 26-477); assay: cell-based or functional assay
human GLP-1 receptor = human GLP-1 receptor (human, UniProt P43220 24-463); assay: cell-based or functional assay
Chain of human GLP-1 receptor (P43220 24-463): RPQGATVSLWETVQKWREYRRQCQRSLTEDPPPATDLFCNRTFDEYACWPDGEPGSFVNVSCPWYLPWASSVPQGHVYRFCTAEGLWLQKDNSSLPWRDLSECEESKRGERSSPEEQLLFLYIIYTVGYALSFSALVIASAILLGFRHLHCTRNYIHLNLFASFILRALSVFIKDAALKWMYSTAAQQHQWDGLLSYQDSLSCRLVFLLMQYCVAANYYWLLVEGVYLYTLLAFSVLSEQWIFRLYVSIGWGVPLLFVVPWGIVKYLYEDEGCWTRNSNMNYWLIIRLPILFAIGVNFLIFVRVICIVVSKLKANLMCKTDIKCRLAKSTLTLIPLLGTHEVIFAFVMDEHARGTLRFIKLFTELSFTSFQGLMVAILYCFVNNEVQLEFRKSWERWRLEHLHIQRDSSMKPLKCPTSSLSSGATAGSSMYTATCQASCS

| Binder | inhibition of cAMP production, 1 nM (human glucagon receptor) [pmol/ml/µg prt] | inhibition of cAMP production, 10 nM (human glucagon receptor) [pmol/ml/µg prt] | inhibition of cAMP production, 100 nM (human glucagon receptor) [pmol/ml/µg prt] | inhibition of cAMP production, 1 µM (human glucagon receptor) [pmol/ml/µg prt] | inhibition of cAMP production, 10 µM (human glucagon receptor) [pmol/ml/µg prt] | cAMP release, % activity, 1 nM (human GLP-1 receptor) [%] | cAMP release, % activity, 10 nM (human GLP-1 receptor) [%] | cAMP release, % activity, 100 nM (human GLP-1 receptor) [%] | cAMP release, % activity, 1 µM (human GLP-1 receptor) [%] | cAMP release, % activity, 10 µM (human GLP-1 receptor) [%] |
| --- | --- | --- | --- | --- | --- | --- | --- | --- | --- | --- |
| B1 | 21 | 19 | 18 | 18 | 16 | 96 | 99 | 99 | 99 | 99 |
| B2 | 2 | 0 | 0 | 0 | 0 | 55 | 88 | 92 | 99 | 99 |
| B3 | 0 | 0 | 0 | 0 | 0 | 99 | 99 | 99 | 99 | 99 |
| B4 | 5 | 3 | 0 | 0 | 0 | 55 | 89 | 93 | 99 | 99 |
| B5 | 10 | 8 | 6 | 4 | 1 | 55 | 88 | 92 | 99 | 99 |
| B6 | 5 | 3 | 1 | 0 | 0 | 39 | 81 | 89 | 96 | 99 |
| B7 | 0 | 0 | 0 | 0 | 0 | 39 | 80 | 86 | 95 | 98 |
| B8 | 9 | 6 | 5 | 3 | 0 | 60 | 92 | 98 | 99 | 99 |
| B9 | 5 | 2 | 0 | 0 | 0 | 86 | 99 | 99 | 99 | 99 |
| B10 | 18 | 16 | 12 | 8 | 6 | 38 | 77 | 85 | 94 | 97 |
| B11 | 19 | 17 | 15 | 14 | 12 | 96 | 99 | 99 | 99 | 99 |
| B12 | 0 | 0 | 0 | 0 | 0 | 99 | 99 | 99 | 99 | 99 |
| B13 | 9 | 6 | 5 | 3 | 0 | 99 | 99 | 99 | 99 | 99 |
